Source: patent publication US20200207850A1 (MacroGenics, published 2020)

T1: 5T4 on JIMT-1 target cells (UniProt Q13641 32-420, limits assumed)
T1 sequence (looked up): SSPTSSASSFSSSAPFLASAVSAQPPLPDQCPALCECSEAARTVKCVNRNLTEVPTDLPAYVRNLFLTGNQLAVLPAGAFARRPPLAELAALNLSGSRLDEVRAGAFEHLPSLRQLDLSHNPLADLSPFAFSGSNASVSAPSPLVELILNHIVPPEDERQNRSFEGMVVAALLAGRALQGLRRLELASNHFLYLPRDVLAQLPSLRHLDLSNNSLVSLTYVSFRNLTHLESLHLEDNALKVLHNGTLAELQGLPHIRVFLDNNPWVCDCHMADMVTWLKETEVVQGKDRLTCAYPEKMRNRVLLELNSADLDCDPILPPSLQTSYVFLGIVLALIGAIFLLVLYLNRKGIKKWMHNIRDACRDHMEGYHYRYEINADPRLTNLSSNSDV

T2: B7-H3 on A498 and JIMT-1 target cells (UniProt Q5ZPR3 29-534, limits assumed)
T2 sequence (looked up): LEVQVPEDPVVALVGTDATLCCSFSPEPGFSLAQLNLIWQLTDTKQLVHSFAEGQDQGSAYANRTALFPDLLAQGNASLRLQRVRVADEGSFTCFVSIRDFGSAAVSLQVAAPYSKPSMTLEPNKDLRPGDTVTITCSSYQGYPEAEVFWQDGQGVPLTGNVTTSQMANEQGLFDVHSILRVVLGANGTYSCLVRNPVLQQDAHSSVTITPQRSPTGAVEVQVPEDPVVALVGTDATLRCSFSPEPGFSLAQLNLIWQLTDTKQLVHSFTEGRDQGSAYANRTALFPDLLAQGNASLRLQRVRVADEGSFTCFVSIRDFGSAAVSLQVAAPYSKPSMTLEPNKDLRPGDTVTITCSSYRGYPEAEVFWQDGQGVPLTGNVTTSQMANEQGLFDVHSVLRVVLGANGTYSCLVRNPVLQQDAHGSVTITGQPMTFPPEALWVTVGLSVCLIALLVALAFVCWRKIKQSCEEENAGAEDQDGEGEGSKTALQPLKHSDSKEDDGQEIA

B1: 5T4 mAb 1/CD3 mAb 2/CD8 mAb 1 Tri-Specific Binding Molecule (other)
chain 1: DIQMTQSPSSLSASVGDRVTITCRASQGISNYLAWFQQKPGKAPKSLIYRANRLQSGVPSRFSGSGSGTDFTLTISSLQPEDVATYYCLQYDDFPWTFGQGTKLEIKGGGSGGGGEVQLVESGGGLVQPGGSLRLSCAASGFTFSTYAMNWVRQAPGKGLEWVGRIRSKYNNYATYYADSVKGRFTISRDDSKNSLYLQMNSLKTEDTAVYYCVRHGNFGNSYVSWFAYWGQGTLVTVSSGGCGGGEVAALEKEVAALEKEVAALEKEVAALEKGGGDKTHTCPPCPAPEAAGGPSVFLFPPKPKDTLMISRTPEVTCVVVDVSHEDPEVKFNWYVDGVEVHNAKTKPREEQYNSTYRVVSVLTVLHQDWLNGKEYKCKVSNKALPAPIEKTISKAKGQPREPQVYTLPPSREEMTKNQVSLWCLVKGFYPSDIAVEWESNGQPENNYKTTPPVLDSDGSFFLYSKLTVDKSRWQQGNVFSCSVMHEALHNHYTQKSLSLSPGK
chain 2: QAVVTQEPSLTVSPGGTVTLTCRSSTGAVTTSNYANWVQQKPGQAPRGLIGGTNKRAPWTPARFSGSLLGGKAALTITGAQAEDEADYYCALWYSNLWVFGGGTKLTVLGGGGSGGGGQVQLVQSGAEVKKPGASVKVSCKASGYTFTSFWMHWVRQAPGQGLEWMGRIDPNRGGTEYNEKAKSRVTMTADKSTSTAYMELSSLRSEDTAVYYCAGGNPYYPMDYWGQGTTVTVSSGGCGGGKVAALKEKVAALKEKVAALKEKVAALKE
heavy: EVQLQQSGAELVKPGASVKLSCTASGFNIKDTYIHFVRQRPEQGLEWIGRIDPANDNTLYASKFQGKATITADTSSNTAYMHLCSLTSGDTAVYYCGRGYGYYVFDHWGQGTTLTVSSASTKGPSVFPLAPSSKSTSGGTAALGCLVKDYFPEPVTVSWNSGALTSGVHTFPAVLQSSGLYSLSSVVTVPSSSLGTQTYICNVNHKPSNTKVDKRVEPKSCDKTHTCPPCPAPEAAGGPSVFLFPPKPKDTLMISRTPEVTCVVVDVSHEDPEVKFNWYVDGVEVHNAKTKPREEQYNSTYRVVSVLTVLHQDWLNGKEYKCKVSNKALPAPIEKTISKAKGQPREPQVYTLPPSREEMTKNQVSLSCAVKGFYPSDIAVEWESNGQPENNYKTTPPVLDSDGSFFLVSKLTVDKSRWQQGNVFSCSVMHEALHNRYTQKSLSLSPGK
light: DVQINQSPSFLAASPGETITINCRTSRSISQYLAWYQEKPGKTNKLLIYSGSTLQSGIPSRFSGSGSGTDFTLTISGLEPEDFAMYYCQQHNENPLTFGAGTKLELRRTVAAPSVFIFPPSDEQLKSGTASVVCLLNNFYPREAKVQWKVDNALQSGNSQESVTEQDSKDSTYSLSSTLTLSKADYEKHKVYACEVTHQGLSSPVTKSFNRGEC
B2: 5T4 mAb 1/CD3 mAb 2 Fast/CD8 mAb 1 Tri-Specific Binding Molecule (other)
chain 1: DIQMTQSPSSLSASVGDRVTITCRASQGISNYLAWFQQKPGKAPKSLIYRANRLQSGVPSRFSGSGSGTDFTLTISSLQPEDVATYYCLQYDDFPWTFGQGTKLEIKGGGSGGGGEVQLVESGGGLVQPGGSLRLSCAASGFTFSTYAMNWVRQAPGKGLEWVGRIRSKYNNYATYYADSVKGRFTISRDDSKNSLYLQMNSLKTEDTAVYYCVRHKNFGNSYVTWFAYWGQGTLVTVSSASTKGEVAACEKEVAALEKEVAALEKEVAALEKGGGDKTHTCPPCPAPEAAGGPSVFLFPPKPKDTLMISRTPEVTCVVVDVSHEDPEVKFNWYVDGVEVHNAKTKPREEQYNSTYRVVSVLTVLHQDWLNGKEYKCKVSNKALPAPIEKTISKAKGQPREPQVYTLPPSREEMTKNQVSLWCLVKGFYPSDIAVEWESNGQPENNYKTTPPVLDSDGSFFLYSKLTVDKSRWQQGNVFSCSVMHEALHNHYTQKSLSLSPGK
chain 2: QAVVTQEPSLTVSPGGTVTLTCRSSTGAVTTSNYANWVQQKPGQAPRGLIGGTNKRAPWTPARFSGSLLGGKAALTITGAQAEDEADYYCALWYSNLWVFGGGTKLTVLGGGGSGGGGQVQLVQSGAEVKKPGASVKVSCKASGYTFTSFWMHWVRQAPGQGLEWMGRIDPNRGGTEYNEKAKSRVTMTADKSTSTAYMELSSLRSEDTAVYYCAGGNPYYPMDYWGQGTTVTVSSASTKGKVAACKEKVAALKEKVAALKEKVAALKE
heavy: B1 heavy
light: B1 light
B3: B7-H3 mAb 1/CD3 mAb 2/CD8 mAb 2 Tri-Specific Binding Molecule (other)
chain 1: DIQMTQSPSSLSASVGDRVTITCRASQDISNYLNWYQQKPGKAPKLLIYYTSRLHSGVPSRFSGSGSGTDFTLTISSLQPEDIATYYCQQGNTLPPTFGGGTKLEIKGGGSGGGGEVQLVESGGGLVQPGGSLRLSCAASGFTFSTYAMNWVRQAPGKGLEWVGRIRSKYNNYATYYADSVKDRFTISRDDSKNSLYLQMNSLKTEDTAVYYCVRHGNFGNSYVSWFAYWGQGTLVTVSSGGCGGGEVAALEKEVAALEKEVAALEKEVAALEKGGGDKTHTCPPCPAPEAAGGPSVFLFPPKPKDTLMISRTPEVTCVVVDVSHEDPEVKFNWYVDGVEVHNAKTKPREEQYNSTYRVVSVLTVLHQDWLNGKEYKCKVSNKALPAPIEKTISKAKGQPREPQVYTLPPSREEMTKNQVSLWCLVKGFYPSDIAVEWESNGQPENNYKTTPPVLDSDGSFFLYSKLTVDKSRWQQGNVFSCSVMHEALHNHYTQKSLSLSPGK
chain 2: QAVVTQEPSLTVSPGGTVTLTCRSSTGAVTTSNYANWVQQKPGQAPRGLIGGTNKRAPWTPARFSGSLLGGKAALTITGAQAEDEADYYCALWYSNLWVFGGGTKLTVLGGGGSGGGGQVQLVQSGAEVKKPGASVKVSCKASGYTFTSYWMQWVRQAPGQGLEWMGTIYPGDGDTRYTQKFKGRVTITADKSTSTAYMELSSLRSEDTAVYYCARRGIPRLWYFDVWGQGTTVTVSSGGCGGGKVAALKEKVAALKEKVAALKEKVAALKE
heavy: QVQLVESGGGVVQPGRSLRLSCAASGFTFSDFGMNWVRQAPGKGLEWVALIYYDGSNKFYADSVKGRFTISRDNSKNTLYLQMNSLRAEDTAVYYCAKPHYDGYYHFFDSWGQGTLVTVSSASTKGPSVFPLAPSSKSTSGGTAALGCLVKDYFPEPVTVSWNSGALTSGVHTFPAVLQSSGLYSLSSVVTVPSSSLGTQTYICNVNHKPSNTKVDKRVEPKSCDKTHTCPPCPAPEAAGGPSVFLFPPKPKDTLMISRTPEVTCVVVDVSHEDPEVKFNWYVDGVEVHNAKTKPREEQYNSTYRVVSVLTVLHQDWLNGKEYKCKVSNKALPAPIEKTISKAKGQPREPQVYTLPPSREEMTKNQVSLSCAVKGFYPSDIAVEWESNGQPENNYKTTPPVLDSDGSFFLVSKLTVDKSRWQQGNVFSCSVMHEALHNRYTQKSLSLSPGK
light: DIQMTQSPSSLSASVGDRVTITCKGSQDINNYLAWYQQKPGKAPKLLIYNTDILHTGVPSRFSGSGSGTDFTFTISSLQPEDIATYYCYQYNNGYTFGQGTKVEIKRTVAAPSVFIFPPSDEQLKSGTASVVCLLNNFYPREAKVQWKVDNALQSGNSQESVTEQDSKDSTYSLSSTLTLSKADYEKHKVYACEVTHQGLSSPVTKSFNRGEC
notes: Site A B7-H3, Site B CD3, Site C CD8 (TRX2)

Key:
[1] = biological target: T3, CD8 on human T cells (PBMC) (human, UniProt P01732 22-235); experiment: flow cytometry on human PBMC gated CD5+/CD4- (cells carry CD8 and CD3), detection with anti-human Fc-PE
T3 construct: whole, on cells; The CD8+ (CD5+ CD4-) cells also carry CD3; also called CD5+ CD4- gated PBMC; CD8+ T cells
T3 sequence (P01732 22-235): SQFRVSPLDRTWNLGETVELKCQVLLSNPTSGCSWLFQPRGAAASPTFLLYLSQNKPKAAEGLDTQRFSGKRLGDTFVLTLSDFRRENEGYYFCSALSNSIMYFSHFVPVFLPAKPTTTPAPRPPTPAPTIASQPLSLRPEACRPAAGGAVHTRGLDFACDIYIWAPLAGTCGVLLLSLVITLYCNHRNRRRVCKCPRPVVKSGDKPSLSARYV

[2] = biological target: T1, 5T4 on JIMT-1 target cells; experiment: cell-based or functional assay
[3] = biological target: T3, CD8 on human T cells (PBMC); experiment: flow cytometry on human PBMC, CD5+/CD4- gated cells (bear CD8 and CD3), detection PE anti-human Fc (MFI)
Experimental: 50 μL (4×10⁶ cells/mL) of well-mixed cells in FACS buffer containing 0.01% sodium azide were then added into corresponding wells and mixed thoroughly using a pipette. The plate was incubated in the dark for about 45 minutes at 2-8° C. At the end of the incubation, the cells were washed twice by adding 300 μL of FACS buffer to each well, centrifuging the plate at 1,200 rpm for 5 minutes, and discarding the supernatant. The cell pellets were re-suspended in 100 μL mixture of PE-conjugated goat anti-Human Fcγ 1:500 diluted, CD5-APC and CD4-PerCP5.5 in FACS buffer containing 0.01% sodium azide, and incubated in the dark for about 45 minutes at 2-8° C. At the end of the incubation, the cells were washed, re-suspended with FACS buffer, and analyzed with a BD Caliber flow cytometer. Cells were gated to CD5⁺ CD4⁺ (FIG. 9A) or CD5⁺ CD4⁻ (FIG. 9B).

[4] = biological target: T2, B7-H3 on A498 and JIMT-1 target cells; experiment: cell-based or functional assay

Binder	EC50 (read off the curve) [1] [pM]	EC50 (nM) of killing, CD4+ effector cells, JIMT1-luc target cells, E:T 5:1 [2] [nM]	EC50 (nM) of killing, CD8+ effector cells, JIMT1-luc target cells, E:T 5:1 [2] [nM]	EC50 (nM) of killing, PanT effector cells, JIMT1-luc target cells, E:T 5:1 [2] [nM]	EC50 (read off the curve) [3] [pM]	EC50 (nM) of killing, CD4+ effector cells, JIMT1-luc target cells, E:T 5:1 [4] [nM]	EC50 (nM) of killing, CD8+ effector cells, JIMT1-luc target cells, E:T 5:1 [4] [nM]	EC50 (nM) of killing, PanT effector cells, JIMT1-luc target cells, E:T 5:1 [4] [nM]
B1	~1000	0.0045	0.0007	0.0009				
B2	~500	0.16	0.0021	0.0028				
B3					~1000	0.314	0.0051	0.0058
